This is an account of results in patent US20180236071A1 (ACTICOR BIOTECH, published 2018).

By Kd is commonly meant the free concentration of one partner at which half of the binding sites on the other are occupied at equilibrium, for simple one-to-one binding. A high value points to a looser complex. In general, koff refers to the rate constant with which the complex falls apart. Broadly, the kon is a measure of how fast the partners come together. Lower therefore signals slow association.

One assay concerns the target T1, Soluble GPVI-Fc (human, UniProt Q9HCN6 21-269).
T1 construct: also called soluble human GPVI
T1 chain: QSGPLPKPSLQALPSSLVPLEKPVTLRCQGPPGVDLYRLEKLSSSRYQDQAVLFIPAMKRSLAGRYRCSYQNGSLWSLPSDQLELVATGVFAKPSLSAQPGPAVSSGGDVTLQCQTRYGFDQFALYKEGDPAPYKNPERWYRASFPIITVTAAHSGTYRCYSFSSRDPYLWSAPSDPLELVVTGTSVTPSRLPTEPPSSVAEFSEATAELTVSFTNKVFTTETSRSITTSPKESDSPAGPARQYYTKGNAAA
In words: SPR, BIAcore 2000, GPVI-Fc immobilised, Fab in flow, PBS pH 7.4. On the procedure: Soluble GPVI-Fc (produced as described in Example 2) was immobilized in acetate buffer 10 mM pH 6 at a dose ranging from 960 to 1071 RU (corresponding about 6.4 to 7.15 fmol/mm²) onto a Carboxy-Methyl Dextran CMS sensor chip using the amine coupling method (Wizard procedure). The protein is then passed over the immobilized GPVI-Fc in PBS pH 7.4 (10 mM phosphate, 138 mM NaCl, 2.7 mM KCl, pH 7.42 at 25.4° C.) at a flow rate of 20 μL/min at 25° C. Kinetic constants (KA, KD, kₒₙ, koff) and affinity are determined using BIAevaluation version 3.0 software, by fitting data to binding model. PBS pH 7.4 is the running buffer.
A general note: Surface plasmon resonance follows binding to a sensor surface in real time, without labels.

The next assay has as its target T2, murine GPVI (mouse, UniProt P0C191 22-265, limits assumed).
T2 construct: also called mouse GPVI
T2 sequence (looked up): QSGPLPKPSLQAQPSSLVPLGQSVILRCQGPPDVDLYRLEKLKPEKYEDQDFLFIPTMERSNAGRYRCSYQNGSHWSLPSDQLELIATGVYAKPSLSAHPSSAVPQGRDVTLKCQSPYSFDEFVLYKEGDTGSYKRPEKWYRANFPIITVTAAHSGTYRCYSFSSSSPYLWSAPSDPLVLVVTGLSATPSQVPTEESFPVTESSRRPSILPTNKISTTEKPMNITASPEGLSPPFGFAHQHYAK
Briefly: not described.

Assay [1] concerns the target T3, human Glycoprotein VI (GPVI) on platelets (human, UniProt Q9HCN6 21-339).
T3 chain: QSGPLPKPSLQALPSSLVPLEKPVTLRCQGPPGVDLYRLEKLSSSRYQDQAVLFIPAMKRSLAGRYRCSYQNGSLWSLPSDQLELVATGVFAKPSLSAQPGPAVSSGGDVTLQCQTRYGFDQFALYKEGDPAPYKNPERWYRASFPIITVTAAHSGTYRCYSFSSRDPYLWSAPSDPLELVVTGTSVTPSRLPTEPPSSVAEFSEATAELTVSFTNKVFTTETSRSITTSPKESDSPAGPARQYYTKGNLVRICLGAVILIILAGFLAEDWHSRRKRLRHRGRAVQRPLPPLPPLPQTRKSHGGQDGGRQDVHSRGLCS
In words: cell-based or functional assay.

B1: ACT006 antibody (humanized Fab fragment) (Fab, V domains shown)
VH: QVQLVQSGAEVKKPGASVKVSCKASGYTFTSYNMHWVRQAPGQGLEWMGGIYPGNGDTSYNQKFQGRVTMTRDTSTSTVYMELSSLRSEDTAVYYCARGTVVGDWYFDVWGQGTLVTVSS
VL: DIQMTQSPSSLSASVGDRVTITCSASQSLENSNGNTYLNWYQQKPGKAPKLLIYRVSNRFSGVPSRFSGSGSGTDFTLTISSLQPEDFATYYCLQLTHVPWTFGQGTKVEIKR
For the molecule B1, in the assay with Soluble GPVI-Fc, the Ka stood at 1.4e+08 M⁻¹, the dissociation constant Kd was 7.3 nM, the koff is 0.000476 s⁻¹ and the kon amounted to 66500 M⁻¹ s⁻¹.

B2: ACT017 antibody (humanized Fab fragment) (Fab, V domains shown)
VH: QVQLVQSGAEVKKPGASVKVSCKASGYTFTSYNMHWVRQAPGQGLEWMGGIYPGNGDTSYNQKFQGRVTMTRDTSTSTVYMELSSLRSEDTAVYYCARGTVVGDWYFDVWGQGTLVTVSS
VL: DIQMTQSPSSLSASVGDRVTITCRSSQSLENSNGNTYLNWYQQKPGKAPKLLIYRVSNRFSGVPSRFSGSGSGTDFTFTISSLQPEDIATYYCLQLTHVPWTFGQGTKVEITR
notes: Coupled to Alexa488 for the flow cytometry assay; also called ACT17; humanized Fab ACT017
In the case of B2, the binding result in the assay with murine GPVI is “no binding”. In addition, in assay [1], the “mean IC50, intensity of collagen-induced platelet aggregation” value came to 3.2 µg/mL and the “mean IC50, velocity of collagen-induced platelet aggregation” value came out at 2 µg/mL. Besides, in the assay with Soluble GPVI-Fc, the Ka turned out to be 2.57e+08 M⁻¹, the Kd is 4.1 nM, the koff was determined as 0.000232 s⁻¹ and the kon was determined as 59700 M⁻¹ s⁻¹.
